In patent US20260001961A1 (ALLIGATOR BIOSCIENCE, published 2026):
Where two headings read alike, the source gives them in different places.

T1: EpCAM (UniProt P16422 24-265)
T1 construct: also called biotinylated EpCAM
T1 sequence (looked up): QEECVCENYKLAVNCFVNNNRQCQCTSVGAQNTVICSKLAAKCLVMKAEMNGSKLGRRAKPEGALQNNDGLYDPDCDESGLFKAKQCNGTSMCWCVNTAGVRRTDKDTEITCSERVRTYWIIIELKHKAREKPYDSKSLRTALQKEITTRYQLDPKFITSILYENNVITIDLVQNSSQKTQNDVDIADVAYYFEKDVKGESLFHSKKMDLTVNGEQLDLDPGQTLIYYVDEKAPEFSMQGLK

B1: AM_4109-4126 (bispecific antibody)
heavy 1: not shown
light: DIQMTQSPSSLSASVGDRVTITCRASQSISSYLNWYQEKPGKAPKLLIYAASSLQSGVPSRFSGSGSGTDFTLTISSLQPEDFATYYCQQYGRNPPTFGQGTKLEIKRTVAAPSVFIFPPSDEQLKSGTASVVCYLNNFYPREAKVQWKVDNALQSGNSQESVTEQDSKDSTYSLWSTLTLSKADYEKHKVYACEVTHQGLSSPVTKSFNRGEC
heavy 2: EVQLLEQSGAELVRPGTSVKISCKASGYAFTNYWLGWVKERPGHGLEWIGDIFPGSGNIHYNEKFKGKATLTADKSSSTAYMQLSSLTFEDSAVYFCARLRNWDEPMDYWGQGTTVTVSSASTKGPSVFPLAPSSKSTSGGTAALGCLVKDYFPEPVTVSWNSGALTSGVHTFPAVLQSSGLISLSSVVEVPSSSLGTQTYICNVNHKPSNTKVDKKVEPKSC
notes: AC_05293 backbone; also called double mutant I126A + Y180I; copies: 2 + 2 + 2
B2: AM_4109-4133 (bispecific antibody)
heavy 1: not shown
light: DIQMTQSPSSLSASVGDRVTITCRASQSISSYLNWYQEKPGKAPKLLIYAASSLQSGVPSRFSGSGSGTDFTLTISSLQPEDFATYYCQQYGRNPPTFGQGTKLEIKRTVAAPSVFIFPPSDEQLKSGTASVVCYLNNFYPREAKVQWKVDNALQSGNSQESVTEQDSKDSTYSLWSTLTLSKADYEKHKVYACEVTHQGLSSPVTKSFNRGEC
heavy 2: EVQLLEQSGAELVRPGTSVKISCKASGYAFTNYWLGWVKERPGHGLEWIGDIFPGSGNIHYNEKFKGKATLTADKSSSTAYMQLSSLTFEDSAVYFCARLRNWDEPMDYWGQGTTVTVSSASTKGPSVFPLAPSSKSTSGGTAALGCLVKDYFPEPVTVSWNSGALTSGVHTFPAVLQSSGLYSLTSVVEVPSSSLGTQTYICNVNHKPSNTKVDKKVEPKSC
notes: AC_05293 backbone; also called double mutant I126A + S183T; copies: 2 + 2 + 2
B3: AM_4109-4131 (bispecific antibody)
heavy 1: not shown
light: DIQMTQSPSSLSASVGDRVTITCRASQSISSYLNWYQEKPGKAPKLLIYAASSLQSGVPSRFSGSGSGTDFTLTISSLQPEDFATYYCQQYGRNPPTFGQGTKLEIKRTVAAPSVFIFPPSDEQLKSGTASVVCYLNNFYPREAKVQWKVDNALQSGNSQESVTEQDSKDSTYSLWSTLTLSKADYEKHKVYACEVTHQGLSSPVTKSFNRGEC
heavy 2: EVQLLEQSGAELVRPGTSVKISCKASGYAFTNYWLGWVKERPGHGLEWIGDIFPGSGNIHYNEKFKGKATLTADKSSSTAYMQLSSLTFEDSAVYFCARLRNWDEPMDYWGQGTTVTVSSASTKGPSVFPLAPSSKSTSGGTAALGCLVKDYFPEPVTVSWNSGALTSGVHTFPAVLQSSGLWSLSSVVEVPSSSLGTQTYICNVNHKPSNTKVDKKVEPKSC
notes: AC_05293 backbone; also called double mutant I126A + Y180W; copies: 2 + 2 + 2
B4: AM_4109-4134 (bispecific antibody)
heavy 1: not shown
light: DIQMTQSPSSLSASVGDRVTITCRASQSISSYLNWYQEKPGKAPKLLIYAASSLQSGVPSRFSGSGSGTDFTLTISSLQPEDFATYYCQQYGRNPPTFGQGTKLEIKRTVAAPSVFIFPPSDEQLKSGTASVVCYLNNFYPREAKVQWKVDNALQSGNSQESVTEQDSKDSTYSLWSTLTLSKADYEKHKVYACEVTHQGLSSPVTKSFNRGEC
heavy 2: EVQLLEQSGAELVRPGTSVKISCKASGYAFTNYWLGWVKERPGHGLEWIGDIFPGSGNIHYNEKFKGKATLTADKSSSTAYMQLSSLTFEDSAVYFCARLRNWDEPMDYWGQGTTVTVSSASTKGPSVFPLAPSSKSTSGGTAALGCLVKDYFPEPVTVSWNSGALTSGVHTFPAVLQSSGLYSLSSVVEGPSSSLGTQTYICNVNHKPSNTKVDKKVEPKSC
notes: AC_05293 backbone; also called double mutant I126A + V188G; copies: 2 + 2 + 2
B5: 4110 (bispecific antibody)
heavy 1: not shown
heavy 2: EVQLLEQSGAELVRPGTSVKISCKASGYAFTNYWLGWVKERPGHGLEWIGDIFPGSGNIHYNEKFKGKATLTADKSSSTAYMQLSSLTFEDSAVYFCARLRNWDEPMDYWGQGTTVTVSSASTKGPSVFPLAPSSKSTSGGTAALGCLVKDYFPEPVTVSWNSGALTSGVHTFPAVLQSSGLYSLSSVVEVPSSSLGTQTYICNVNHKPSNTKVDKKVEPKSC
light: DIQMTQSPSSLSASVGDRVTITCRASQSISSYLNWYQEKPGKAPKLLIYAASSLQSGVPSRFSGSGSGTDFTLTISSLQPEDFATYYCQQYGRNPPTFGQGTKLEIKRTVAAPSVFIFPPSDEQLKSGTASVVCYLNNFYPREAKVQWKVDNALQSGNSQESVTEQDSKDSTYSLWSTLTLSKADYEKHKVYACEVTHQGLSSPVTKSFNRGEC
notes: also called single mutant I126G of AC_05293; copies: 2 + 2 + 2
B6: AM_4120-4134 (bispecific antibody)
heavy 1: not shown
light: DIQMTQSPSSLSASVGDRVTITCRASQSISSYLNWYQEKPGKAPKLLIYAASSLQSGVPSRFSGSGSGTDFTLTISSLQPEDFATYYCQQYGRNPPTFGQGTKLEIKRTVAAPSVFIFPPSDEQLKSGTASVVCYLNNFYPREAKVQWKVDNALQSGNSQESVTEQDSKDSTYSLWSTLTLSKADYEKHKVYACEVTHQGLSSPVTKSFNRGEC
heavy 2: EVQLLEQSGAELVRPGTSVKISCKASGYAFTNYWLGWVKERPGHGLEWIGDIFPGSGNIHYNEKFKGKATLTADKSSSTAYMQLSSLTFEDSAVYFCARLRNWDEPMDYWGQGTTVTVSSASTKGPSVFPLAPSSKSTSGGTAALGCLVKDYFPEPVTVSWNSGALTSGVHTFPAVLQSSGLYSLSSVVEGPSSSLGTQTYICNVNHKPSNTKVDKKVEPKSC
notes: AC_05293 backbone; also called double mutant A111V + V188G; copies: 2 + 2 + 2
B7: AM_4120-4133 (bispecific antibody)
heavy 1: not shown
light: DIQMTQSPSSLSASVGDRVTITCRASQSISSYLNWYQEKPGKAPKLLIYAASSLQSGVPSRFSGSGSGTDFTLTISSLQPEDFATYYCQQYGRNPPTFGQGTKLEIKRTVAAPSVFIFPPSDEQLKSGTASVVCYLNNFYPREAKVQWKVDNALQSGNSQESVTEQDSKDSTYSLWSTLTLSKADYEKHKVYACEVTHQGLSSPVTKSFNRGEC
heavy 2: EVQLLEQSGAELVRPGTSVKISCKASGYAFTNYWLGWVKERPGHGLEWIGDIFPGSGNIHYNEKFKGKATLTADKSSSTAYMQLSSLTFEDSAVYFCARLRNWDEPMDYWGQGTTVTVSSASTKGPSVFPLAPSSKSTSGGTAALGCLVKDYFPEPVTVSWNSGALTSGVHTFPAVLQSSGLYSLTSVVEVPSSSLGTQTYICNVNHKPSNTKVDKKVEPKSC
notes: AC_05293 backbone; also called double mutant A111V + S183T; copies: 2 + 2 + 2
B8: 4109 (bispecific antibody)
heavy 1: not shown
heavy 2: EVQLLEQSGAELVRPGTSVKISCKASGYAFTNYWLGWVKERPGHGLEWIGDIFPGSGNIHYNEKFKGKATLTADKSSSTAYMQLSSLTFEDSAVYFCARLRNWDEPMDYWGQGTTVTVSSASTKGPSVFPLAPSSKSTSGGTAALGCLVKDYFPEPVTVSWNSGALTSGVHTFPAVLQSSGLYSLSSVVEVPSSSLGTQTYICNVNHKPSNTKVDKKVEPKSC
light: DIQMTQSPSSLSASVGDRVTITCRASQSISSYLNWYQEKPGKAPKLLIYAASSLQSGVPSRFSGSGSGTDFTLTISSLQPEDFATYYCQQYGRNPPTFGQGTKLEIKRTVAAPSVFIFPPSDEQLKSGTASVVCYLNNFYPREAKVQWKVDNALQSGNSQESVTEQDSKDSTYSLWSTLTLSKADYEKHKVYACEVTHQGLSSPVTKSFNRGEC
notes: CD40 x EpCAM; also called single mutant I126A of AC_05293; copies: 2 + 2 + 2

Legend:
CD40 [1] = biological target: T2, CD40 (UniProt P25942 21-193); assay: Octet BLI; biotinylated CD40 on streptavidin sensor;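 also: octet RED96 biolayer interferometry, 300 s association then 300 s dissociation in kinetic buffer, buffer-blank referenced, fitted with a 1:1 Langmuir binding model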
T2 construct: also called biotinylated CD40; CD40 antigen
Description: (§1) Kinetic measurements were performed using the Octet RED96 platform (ForteBIo). […] Association was followed for 300 seconds followed by dissociation in 1x Kinetic buffer for 300 seconds. Sensor tips were regenerated using 10 mM glycine, pH 1.7. Data generated were referenced by subtracting a parallel buffer blank, the baseline was aligned with the γ-axis, inter-step correlation by alignment against dissociation was performed and the data were smoothed by a Savitzky-Golay filter in the data analysis software (v.9.0.0.14). The processed data were fitted using a 1:1 Langmuir binding model with X2 as a measurement of fitting accuracy.
(§2) Binding affinities of all the variants were determined using Octet (Pall ForteBio).

CD40 [2] = biological target: T2, CD40; assay: dual ELISA: CD40 coated, bsAb titrated, biotinylated EpCAM + streptavidin-HRP; signal needs both targets
Description: (§3) Dual ELISA Plates were coated with 0.5 μg/mL CD40 in PBS over night at 4° C. After washing in PBS/0.05% Tween 20 (PBST), the plates were blocked with PBS/2% BSA for at least 30 minutes at room temperature before being washed again. Samples serially diluted in PBS/0.5% BSA were then added and allowed to bind for at least 1 hour at room temperature. […] Dual complexed bsAb with CD40 and EpCAM were detected with HRP-labelled streptavidin. SuperSignal Pico Luminescent was used as substrate and luminescence signals were measured using Fluostar Optima.

EpCAM = biological target: T1, EpCAM; assay: Octet BLI; biotinylated EpCAM on streptavidin sensor;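 also: octet RED96 kinetics: 300 s association, then 300 s dissociation in 1x Kinetic buffer, buffer-blank referenced, Savitzky-Golay smoothed, fitted to a 1:1 Langmuir binding model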
Description: as §1, §2

CD40 [3] = biological target: T2, CD40; assay: dual ELISA: CD40 coated, bsAb titrated, biotinylated EpCAM + streptavidin-HRP; signal needs both targets; remark: listed apart in the source
Description: as §3

T2 sequence (P25942 21-193 limits assumed): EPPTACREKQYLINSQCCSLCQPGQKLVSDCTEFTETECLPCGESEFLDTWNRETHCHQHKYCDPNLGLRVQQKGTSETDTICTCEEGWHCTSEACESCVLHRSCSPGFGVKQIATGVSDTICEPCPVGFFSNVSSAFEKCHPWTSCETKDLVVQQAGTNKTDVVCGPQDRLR

Binder | Kd (CD40 [1]) [nM] | koff (CD40 [1]) [s⁻¹] | kon (CD40 [1]) [M⁻¹ s⁻¹] | EC50 (read off the curve) (CD40 [2]) [nM] | Kd (EpCAM) [nM] | koff (EpCAM) [s⁻¹] | kon (EpCAM) [M⁻¹ s⁻¹] | EC50 (read off the curve) (CD40 [3]) [µg/mL]
B1 | 1.2 | 0.0006 | 480000 | ~0.9 | 4.3 | 0.00077 | 180000 | –
B2 | 0.73 | 0.001 | 1.4e+06 | ~0.9 | 4.6 | 0.00092 | 200000 | –
B3 | 0.89 | 0.00072 | 800000 | ~0.9 | 4.4 | 0.00081 | 180000 | –
B4 | 0.83 | 0.00092 | 1.1e+06 | ~0.9 | 4.7 | 0.00098 | 210000 | –
B5 | – | – | – | – | – | – | – | ~0.1
B6 | 0.91 | 0.0011 | 1.2e+06 | – | 5.8 | 0.0014 | 250000 | –
B7 | 0.9 | 0.0011 | 1.2e+06 | – | 5.7 | 0.0014 | 240000 | –
B8 | – | – | – | – | – | – | – | ~0.1
